According to publication PMC7017226:

Experiments:
[1] = molecular target: Stromal interacting molecule 2 (STIM2) (rat (endogenous in primary cortical neurons)); assay: proximity ligation; Duolink in situ PLA on fixed 17-day-old rat cortical neurons; rabbit anti-STIM1 or anti-STIM2 with mouse anti-NR2A or anti-NR2B; cells treated 10 min with 2 mM CaCl2 (control) or 2 uM TG in 0.5 mM EGTA; PLA signals per cell counted in ImageJ
[2] = molecular target: Stromal interacting molecule 1 (STIM1) (rat (endogenous in primary cortical neurons)) (UniProt P84903); assay: as above
Sequence of Stromal interacting molecule 1 (STIM1) (rat (endogenous in primary cortical neurons)) (P84903 23-685): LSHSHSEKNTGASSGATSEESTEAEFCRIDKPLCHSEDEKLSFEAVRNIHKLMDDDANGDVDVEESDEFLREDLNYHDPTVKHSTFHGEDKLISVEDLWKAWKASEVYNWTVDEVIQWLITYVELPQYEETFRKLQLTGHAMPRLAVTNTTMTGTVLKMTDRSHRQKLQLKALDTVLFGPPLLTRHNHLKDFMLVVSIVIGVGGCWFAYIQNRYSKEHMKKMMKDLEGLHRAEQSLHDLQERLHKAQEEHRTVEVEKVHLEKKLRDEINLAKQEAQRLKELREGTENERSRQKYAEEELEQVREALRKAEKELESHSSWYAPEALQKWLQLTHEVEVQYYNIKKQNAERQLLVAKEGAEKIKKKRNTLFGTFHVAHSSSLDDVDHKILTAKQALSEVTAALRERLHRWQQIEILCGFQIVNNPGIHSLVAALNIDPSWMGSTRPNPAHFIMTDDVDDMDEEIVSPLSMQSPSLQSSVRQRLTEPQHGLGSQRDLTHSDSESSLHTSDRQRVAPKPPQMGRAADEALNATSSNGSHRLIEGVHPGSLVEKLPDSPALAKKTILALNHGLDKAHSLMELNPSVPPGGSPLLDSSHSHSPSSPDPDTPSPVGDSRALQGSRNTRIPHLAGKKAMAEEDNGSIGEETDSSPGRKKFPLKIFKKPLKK

Sequence of NMDA receptor subunit NR2A (Q00959 23-1464): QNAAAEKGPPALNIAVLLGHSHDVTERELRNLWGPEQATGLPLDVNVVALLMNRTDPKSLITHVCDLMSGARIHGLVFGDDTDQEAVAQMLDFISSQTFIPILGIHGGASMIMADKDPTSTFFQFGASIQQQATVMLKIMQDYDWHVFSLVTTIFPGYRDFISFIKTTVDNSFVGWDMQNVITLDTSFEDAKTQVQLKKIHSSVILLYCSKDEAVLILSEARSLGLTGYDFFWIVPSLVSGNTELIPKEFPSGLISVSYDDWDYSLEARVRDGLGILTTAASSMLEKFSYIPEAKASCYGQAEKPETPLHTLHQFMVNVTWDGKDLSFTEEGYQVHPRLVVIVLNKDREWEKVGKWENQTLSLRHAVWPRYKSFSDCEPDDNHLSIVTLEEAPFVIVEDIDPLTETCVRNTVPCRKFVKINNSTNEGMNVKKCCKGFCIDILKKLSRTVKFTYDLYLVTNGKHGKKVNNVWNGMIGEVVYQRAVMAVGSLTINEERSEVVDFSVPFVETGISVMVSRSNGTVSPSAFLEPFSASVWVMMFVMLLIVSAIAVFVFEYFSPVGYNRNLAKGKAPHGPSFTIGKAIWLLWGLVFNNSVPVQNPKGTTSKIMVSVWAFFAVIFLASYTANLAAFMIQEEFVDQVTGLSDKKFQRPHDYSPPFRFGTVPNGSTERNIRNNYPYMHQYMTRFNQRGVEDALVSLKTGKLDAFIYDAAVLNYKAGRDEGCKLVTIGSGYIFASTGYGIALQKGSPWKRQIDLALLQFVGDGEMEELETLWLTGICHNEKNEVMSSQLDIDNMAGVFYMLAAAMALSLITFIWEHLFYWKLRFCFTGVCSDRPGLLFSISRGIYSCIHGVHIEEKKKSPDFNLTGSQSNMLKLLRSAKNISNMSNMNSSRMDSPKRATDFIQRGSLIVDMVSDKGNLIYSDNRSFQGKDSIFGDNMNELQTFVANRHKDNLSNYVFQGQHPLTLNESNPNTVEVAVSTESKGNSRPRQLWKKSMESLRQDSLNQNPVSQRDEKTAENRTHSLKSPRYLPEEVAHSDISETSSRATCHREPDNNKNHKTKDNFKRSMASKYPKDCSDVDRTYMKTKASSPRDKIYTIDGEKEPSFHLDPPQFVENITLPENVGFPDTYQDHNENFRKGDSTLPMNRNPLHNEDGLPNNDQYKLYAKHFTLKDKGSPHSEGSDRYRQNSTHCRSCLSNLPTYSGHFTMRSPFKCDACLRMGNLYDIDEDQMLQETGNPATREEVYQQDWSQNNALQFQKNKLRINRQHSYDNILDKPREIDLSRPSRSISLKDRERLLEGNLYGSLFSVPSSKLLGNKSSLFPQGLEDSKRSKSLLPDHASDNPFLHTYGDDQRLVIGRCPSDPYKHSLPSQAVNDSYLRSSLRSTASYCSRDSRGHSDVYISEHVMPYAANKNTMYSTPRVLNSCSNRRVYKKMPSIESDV
Sequence of NMDA receptor subunit NR2B, Q00960 27-1482 (receptor; other documents disagree on this pair) (Q00960 27-1482): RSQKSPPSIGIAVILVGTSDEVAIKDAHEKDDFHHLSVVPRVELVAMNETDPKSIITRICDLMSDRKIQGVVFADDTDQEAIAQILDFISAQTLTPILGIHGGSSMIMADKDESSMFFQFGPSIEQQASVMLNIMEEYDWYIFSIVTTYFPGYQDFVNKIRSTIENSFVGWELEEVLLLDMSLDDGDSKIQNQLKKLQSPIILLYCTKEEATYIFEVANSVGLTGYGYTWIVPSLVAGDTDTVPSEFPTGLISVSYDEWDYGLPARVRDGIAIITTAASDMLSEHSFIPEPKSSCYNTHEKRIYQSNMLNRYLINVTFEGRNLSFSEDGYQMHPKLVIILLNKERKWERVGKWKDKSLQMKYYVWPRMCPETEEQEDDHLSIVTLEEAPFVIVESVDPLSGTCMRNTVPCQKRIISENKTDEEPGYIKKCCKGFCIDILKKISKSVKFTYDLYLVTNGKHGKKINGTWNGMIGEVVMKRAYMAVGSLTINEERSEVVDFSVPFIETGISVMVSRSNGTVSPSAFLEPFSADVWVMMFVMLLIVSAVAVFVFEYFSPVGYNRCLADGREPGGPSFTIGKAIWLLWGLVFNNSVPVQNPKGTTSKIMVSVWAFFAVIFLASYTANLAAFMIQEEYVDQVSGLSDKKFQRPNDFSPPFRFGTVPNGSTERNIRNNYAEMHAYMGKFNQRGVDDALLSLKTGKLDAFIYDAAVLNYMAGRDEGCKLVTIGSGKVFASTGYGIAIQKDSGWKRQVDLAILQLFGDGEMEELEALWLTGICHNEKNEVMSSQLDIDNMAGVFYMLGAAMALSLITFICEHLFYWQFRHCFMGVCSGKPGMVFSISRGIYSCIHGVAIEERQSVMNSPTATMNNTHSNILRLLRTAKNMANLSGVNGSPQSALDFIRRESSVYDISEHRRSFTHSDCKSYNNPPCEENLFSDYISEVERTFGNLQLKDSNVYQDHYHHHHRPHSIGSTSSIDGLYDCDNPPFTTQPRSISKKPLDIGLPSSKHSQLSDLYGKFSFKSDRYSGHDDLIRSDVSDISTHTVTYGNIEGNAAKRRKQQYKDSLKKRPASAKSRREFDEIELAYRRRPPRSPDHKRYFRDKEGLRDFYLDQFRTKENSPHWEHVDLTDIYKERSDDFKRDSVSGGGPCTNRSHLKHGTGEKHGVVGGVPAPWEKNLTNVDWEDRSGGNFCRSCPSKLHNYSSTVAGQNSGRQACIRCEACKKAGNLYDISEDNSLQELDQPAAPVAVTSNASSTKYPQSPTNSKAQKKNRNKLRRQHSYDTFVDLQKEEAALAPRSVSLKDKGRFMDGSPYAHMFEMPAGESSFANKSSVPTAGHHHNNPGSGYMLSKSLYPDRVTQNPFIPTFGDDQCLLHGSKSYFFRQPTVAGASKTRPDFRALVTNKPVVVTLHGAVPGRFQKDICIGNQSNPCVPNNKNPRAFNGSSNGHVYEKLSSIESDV

Substance | PLA complexes per cell (complexes per cell) [1] | PLA complexes per cell (complexes per cell) [2]
NMDA receptor subunit NR2A (from UniProt Q00959 23-1464) | 3.78 | 
NMDA receptor subunit NR2B, Q00960 27-1482 (receptor; other documents disagree on this pair) |  | 57.2
